Measured values: the RNAGym collection of RNA variant scans (doi:10.1073/pnas.2313332121)
This sample holds only a part of the variants without activity.

B1: TPR 5TU (parent)
chain: GGAUCUUCUCGAUCUAACAAAAAAGACAAAUCUGCCACAAAGCUUGAGAGCAUCUUCGGAUGCAGAGGCGGCAGCCUUCGGUGGCGCGAUAGCGCCAACGUUCUCAACUAUGACACGCAAAACGCGUGCUCCGUUGAAUGGAGUUUAUCAUG

Variants of: B1
Test: polymerase ribozyme fitness, log enrichment relative to wild type (log ratio); higher = more active; in vitro selection for triplet polymerase activity
How it was run: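 Input and output libraries were sequenced on Illumina after a single in vitro selection round, run in triplicate on PCR-built, transcribed mutant libraries of each subunit of a heterodimeric triplet polymerase ribozyme. Selection annealed libraries to a biotinylated primer, the partner subunit and triplets, incubated them frozen at −7 °C, then gel-excised extended constructs for streptavidin-bead capture and RT-PCR. Genotypes with ≥10 input reads and ≥1 read per output were kept. Fitness is the logarithm, taken in base 2, of genotype enrichment divided by wild-type enrichment, using inverse-variance-weighted replicate averages.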

Point of comparison: C76A A91G C114U, “polymerase ribozyme fitness (log ratio)” value -3.98. Against it:
- C76A C87U G140C — lower, ≤ -4.2
- C75U C85G C103A A107U U146G A147U A150G — lower, ≤ -4.2
- G70U — higher, -1.81
- G70C — higher, -2.92
- G70A — higher, -2.75
- G68U C85U — lower, ≤ -4.2
- C75U A97G C131U U135G — higher, -3.18
- C76A G83U C99U A122U — lower, ≤ -4.2
- A66C C96A A115C C123U G136C — lower, ≤ -4.2
- C69A U90A A147C — lower, ≤ -4.2
- C72U G86A G100C C131A U135A — lower, ≤ -4.2
- C69U A97G G141A — higher, -0.875
- A73U C79G A107U A113C — lower, ≤ -4.2
- C75U G83C A138U A142G — lower, ≤ -4.2
- A64U C79U C87A A137G — lower, ≤ -4.2
- C76A C85U U144C — higher, -0.235
- A73G C93G — higher, -2.73
- A73G C93U — higher, -1.28
- G71C G86U A91C G133A — lower, ≤ -4.2
- C76A C87G — within 0.2 log units, -4.07
- C69A U148A — within 0.2 log units, -4.08
- A66G U104A U134G G136C — lower, ≤ -4.2
- G71U C93U — higher, -3.57
- C76A A113C G141C U151A — lower, ≤ -4.2
- G71A G92U — higher, -2.6
- A66C A73C G140U A147C — lower, ≤ -4.2
- A64G G68A C85A — lower, ≤ -4.2
- A64U C75U C85U G136C — lower, ≤ -4.2
- A73G C96G — higher, -0.616
- C75U A89G — higher, -0.933
- C75G G81U C95A G152U — lower, ≤ -4.2
- G68C A122C U127A — lower, ≤ -4.2
- C75G C93A — within 0.2 log units, -4.14
- G68A G88A C116A A119U — higher, -3.78
- A73G G81A C85U — higher, 0.246
- C75G U82G C87U C131G U134A — lower, ≤ -4.2
- A73G A137C U145G — higher, -3.74
- A64G G84U — within 0.2 log units, -4.16
- C75U G83U — higher, -3.08
- C75U G83A — higher, -0.0803
- C69A U78G U90G G128A C131U — lower, ≤ -4.2
- A73G G94U A106G — higher, -0.312
- G70A C87U — higher, -3.05
- C69A G86A C149A — lower, ≤ -4.2
- A73U G81A C118G A120U U135A — higher, -3.75
- G70C G94A — higher, -3.61
- G68A A147U — within 0.2 log units, -4.05
- C75G C85A C103U A107G A122C — lower, ≤ -4.2
- C75G G86U C95U C99U — lower, ≤ -4.2
- C72U C87A A137C U139A — lower, ≤ -4.2
- G65A G70A G94A C116U G143U — lower, ≤ -4.2
- G68A C105U — higher, -3.51
- G74U A107G — lower, ≤ -4.2
- C63U U134A — higher, -2.6
- C69A U90C — lower, ≤ -4.2
- G70A G86U G88U C99G C105G C114G — lower, ≤ -4.2
- C75G G141C — within 0.2 log units, -4.12
- A73U C96G A98U A120U A137G — higher, -2.92
- C76A G86A A89U G133C U145G — lower, ≤ -4.2
- A73G G81A G83A C96A A119U G124C — lower, ≤ -4.2
- G74C C79G U82A C93U C108U — lower, ≤ -4.2
- C72U A89C C95U C105U — higher, -1.12
- A64U C93U A138G — lower, ≤ -4.2
- C63U G141C — higher, -0.69
- A73C C96A — higher, -3.14
- G68C C69A G92U G136A — within 0.2 log units, -4.11
- C75U G92A — higher, -2.99
- C63U G83C C85G C105A A110C — lower, ≤ -4.2
- A73G A115G G141A — higher, -2.44
- G70A C75A C85G G140C — lower, ≤ -4.2
- C75U G80A C85A U146C — higher, -3.11
- C76A G84U A121G A122G U146A — higher, -3.68
- A66C U134C — lower, ≤ -4.2
- A73G G86U C105U A106U U144C — within 0.2 log units, -3.89
- C75U C87U — higher, 0.0996
- C69A U134G — higher, -3.35
- C76A U82C U90C G94C C116U G143A — lower, ≤ -4.2
- G65C C93A A97U C108U U109C — lower, ≤ -4.2
- G74U G83C G94C — lower, ≤ -4.2
- A73U U144C — higher, -1.49
- A64C C72G A91C A106U U109G C123A U148C — lower, ≤ -4.2
- C72U C79A C85U — lower, ≤ -4.2
